Residue numbers refer to the chain shown, from its start. In names and notes the source's numbering stands.
B1: human aldehyde oxidase 1 variant H363Q (enzyme)
chain: MDRASELLFYVNGRKVIEKNVDPETMLLPYLRKKLRLTGTKYGCGGGGCGACTVMISRYNPITKRIRHHPANACLIPICSLYGAAVTTVEGIGSTHTRIHPVQERIAKCHGTQCGFCTPGMVMSIYTLLRNHPEPTLDQLTDALGGNLCRCTGYRPIIDACKTFCKTSGCCQSKENGVCCLDQGINGLPEFEEGSKTSPKLFAEEEFLPLDPTQELIFPPELMIMAEKQSQRTRVFGSERMMWFSPVTLKELLEFKFKYPQAPVIMGNTSVGPEVKFKGVFHPVIISPDRIEELSVVNHAYNGLTLGAGLSLAQVKDILADVVQKLPEEKTQMYHALLKHLGTLAGSQIRNMASLGGHIISRQPDSDLNPILAVGNCTLNLLSKEGKRQIPLNEQFLSKCPNADLKPQEILVSVNIPYSRKWEFVSAFRQAQRQENALAIVNSGMRVFFGEGDGIIRELCISYGGVGPATICAKNSCQKLIGRHWNEQMLDIACRLILNEVSLLGSAPGGKVEFKRTLIISFLFKFYLEVSQILKKMDPVHYPSLADKYESALEDLHSKHHCSTLKYQNIGPKQHPEDPIGHPIMHLSGVKHATGEAIYCDDMPLVDQELFLTFVTSSRAHAKIVSIDLSEALSMPGVVDIMTAEHLSDVNSFCFFTEAEKFLATDKVFCVGQLVCAVLADSEVQAKRAAKRVKIVYQDLEPLILTIEESIQHNSSFKPERKLEYGNVDEAFKVVDQILEGEIHMGGQEHFYMETQSMLVVPKGEDQEMDVYVSTQFPKYIQDIVASTLKLPANKVMCHVRRVGGAFGGKVLKTGIIAAVTAFAANKHGRAVRCVLERGEDMLITGGRHPYLGKYKAGFMNDGRILALDMEHYSNAGASLDESLFVIEMGLLKMDNAYKFPNLRCRGWACRTNLPSNTAFRGFGFPQAALITESCITEVAAKCGLSPEKVRIINMYKEIDQTPYKQEINAKNLIQCWRECMAMSSYSLRKVAVEKFNAENYWKKKGLAMVPLKFPVGLGSRAAGQAAALVHIYLDGSVLVTHGGIEMGQGVHTKMIQVVSRELRMPMSNVHLRGTSTETVPNANISGGSVVADLNGLAVKDACQTLLKRLEPIISKNPKGTWKDWAQTAFDESINLSAVGYFRGYESDMNWEKGEGQPFEYFVYGAACSEVEIDCLTGDHKNIRTDIVMDVGCSINPAIDIGQIEGAFIQGMGLYTIEELNYSPQGILHTRGPDQYKIPAICDMPTELHIALLPPSQNSNTLYSSKGLGESGVFLGCSVFFAIHDAVSAARQERGLHGPLTLNSPLTPEKIRMACEDKFTKMIPRDEPGSYVPWNVPI
notes: human aldehyde oxidase 1 (hAOX1), protein of 1338 amino acids, SNP-based variant H363Q; construct pAF7 derived from pTHcohAOX1; also called hAOX1 H363Q; pAF7; source: E. coli TP1000 (ΔmobAB), purified (nickel-nitrilotriacetic acid resin, size exclusion chromatography)
B2: human aldehyde oxidase 1 variant R1231H (enzyme)
chain: B1 chain with Q363H, R1231H
notes: human aldehyde oxidase 1 (hAOX1), protein of 1338 amino acids, SNP-based variant R1231H; construct pAF12 derived from pTHcohAOX1; also called hAOX1 R1231H; pAF12; source: E. coli TP1000 (ΔmobAB), purified (nickel-nitrilotriacetic acid resin, size exclusion chromatography)
B3: human aldehyde oxidase 1 variant A439E (enzyme)
chain: B1 chain with Q363H, A439E
notes: human aldehyde oxidase 1 (hAOX1), protein of 1338 amino acids, SNP-based variant A439E; construct pAF11 derived from pTHcohAOX1; also called hAOX1 A439E; pAF11; source: E. coli TP1000 (ΔmobAB), purified (nickel-nitrilotriacetic acid resin, size exclusion chromatography)
B4: human aldehyde oxidase 1 variant R433P (enzyme)
chain: B1 chain with Q363H, R433P
notes: human aldehyde oxidase 1 (hAOX1), protein of 1338 amino acids, SNP-based variant R433P; construct pAF8 derived from pTHcohAOX1; also called hAOX1 R433P; pAF8; source: E. coli TP1000 (ΔmobAB), purified (nickel-nitrilotriacetic acid resin, size exclusion chromatography)
B5: human aldehyde oxidase 1 variant L438V (enzyme)
chain: B1 chain with Q363H, L438V
notes: human aldehyde oxidase 1 (hAOX1), protein of 1338 amino acids, SNP-based variant L438V; construct pAF10 derived from pTHcohAOX1; also called hAOX1 L438V; hAOX1-L438V; source: E. coli TP1000 (ΔmobAB), purified (nickel-nitrilotriacetic acid resin, size exclusion chromatography)
B6: human aldehyde oxidase 1 variant A437V (enzyme)
chain: B1 chain with Q363H, A437V
notes: human aldehyde oxidase 1 (hAOX1), protein of 1338 amino acids, SNP-based variant A437V; construct pAF9 derived from pTHcohAOX1; also called hAOX1 A437V; pAF9; source: E. coli TP1000 (ΔmobAB), purified (nickel-nitrilotriacetic acid resin, size exclusion chromatography)

Molecular target: the molecule itself
Experiment: SEC; size exclusion chromatography on a Superdex 200 10/300 GL column after nickel-NTA purification; data not shown

| Protein | stoichiometry N |
| --- | --- |
| B1 | 2 |
| B2 | 2 |
| B3 | 2 |
| B4 | 2 |
| B5 | 2 |
| B6 | 2 |

Source: publication PMC5531472, “A single nucleotide polymorphism causes enhanced radical oxygen species production by human aldehyde oxidase” (PLoS ONE, 2017)
